Results from PMC5278371.

Substrate: O=[N+]([O-])c1ccc(O[C@@H]2O[C@H](CO)[C@@H](O)[C@H](O)[C@H]2O)cc1
Test: purified protein
Settings: free enzyme, 2–16 mM p-NPG, 50 mM NaAc-HAc buffer, 40 °C

B1: β-glucosidase (BG), his-tagged (Coptotermes formosanus) (protein)
chain: DDVDNDTLVTFPDDFKLGAATASYQIEGGWDADGKGPNIWDTLTHERPHLVVDRSTGDVADDSYHLYLEDVRLLKDMGAEVYRFSISWARILPEGHDNNVNEAGIEYYNKLIDALLRNGIEPMVTMYHWDLPQKLQDLGGWPNRILAKYAENYARVLFSNFGDRVKQWLTFNEPLTFMDAYASDTGMAPSVDTPGIGDYLTAHTVILAHANIYRLYEREFREEQQGQVGIALNIHWCEPETGSPKDVEACERYQQFNLGIYAHPIFSENGDYPSVLKARVDANSASEGYTTSRLPKFTPEEVAFVNGTYDFLGLNFYTAVVGRDGVEGEPPSRYRDMGTITSQDPEWPESASSWLRVVPWGFRKELNWIANEYGNPPIFITENGFSDYGGVNDTNRVLYYTEHLKEMLKAIHIDGVNVIGYTAWSLIDNFEWLRGYTERFGIHAVNFIDPSRPRTPKESARVLTEIFKTRQIPERFRD
  Km: 4.2 ± 0.3 mM
  kcat: 58.8 s⁻¹
  kcat/Km: 14000 M⁻¹ s⁻¹
